Data on five substances can be found in patent US20080207501A1.

Experiment [1] concerns the target calcitonin receptor (receptor binding assay). The experiment is described as follows: rCalcitonin RBA, method not described.
The target in another experiment is CGRP RBA (UniProt Q16602). Briefly: radioligand binding assay (displacement of radiolabeled CGRP).
A further experiment has as its target Amylin RBA (rat) (UniProt P32214). The experiment is described as follows: radioligand binding assay (displacement of radiolabeled amylin).
Experiment [2] addresses calcitonin receptor of CHO cells. The experiment is described as follows: cell-based or functional assay.
Experiment [3] deals with T1, calcitonin receptor of T47D cells (UniProt P30988).
T1 sequence (looked up): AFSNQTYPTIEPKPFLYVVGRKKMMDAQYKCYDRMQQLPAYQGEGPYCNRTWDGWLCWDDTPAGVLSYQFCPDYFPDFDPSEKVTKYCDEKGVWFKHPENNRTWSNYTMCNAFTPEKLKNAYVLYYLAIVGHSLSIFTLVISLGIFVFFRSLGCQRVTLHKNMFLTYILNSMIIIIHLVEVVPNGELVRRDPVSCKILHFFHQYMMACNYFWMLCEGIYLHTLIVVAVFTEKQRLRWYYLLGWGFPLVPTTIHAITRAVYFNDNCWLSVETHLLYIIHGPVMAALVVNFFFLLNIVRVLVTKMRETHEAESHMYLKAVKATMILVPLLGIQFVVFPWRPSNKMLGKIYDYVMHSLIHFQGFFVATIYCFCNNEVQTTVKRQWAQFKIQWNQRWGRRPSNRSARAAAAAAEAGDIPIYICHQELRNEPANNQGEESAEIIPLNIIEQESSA
The experiment is described as follows: cell-based or functional assay.

The target of experiment [4] is CGRP receptor (membranes prepared from SK-N-MC cells) (UniProt Q16602). Briefly: radioligand displacement, 125I-hCGRP, SK-N-MC cell membranes.
Chain of CGRP receptor (membranes prepared from SK-N-MC cells) (Q16602 23-461 limits assumed, chain 1 of 2): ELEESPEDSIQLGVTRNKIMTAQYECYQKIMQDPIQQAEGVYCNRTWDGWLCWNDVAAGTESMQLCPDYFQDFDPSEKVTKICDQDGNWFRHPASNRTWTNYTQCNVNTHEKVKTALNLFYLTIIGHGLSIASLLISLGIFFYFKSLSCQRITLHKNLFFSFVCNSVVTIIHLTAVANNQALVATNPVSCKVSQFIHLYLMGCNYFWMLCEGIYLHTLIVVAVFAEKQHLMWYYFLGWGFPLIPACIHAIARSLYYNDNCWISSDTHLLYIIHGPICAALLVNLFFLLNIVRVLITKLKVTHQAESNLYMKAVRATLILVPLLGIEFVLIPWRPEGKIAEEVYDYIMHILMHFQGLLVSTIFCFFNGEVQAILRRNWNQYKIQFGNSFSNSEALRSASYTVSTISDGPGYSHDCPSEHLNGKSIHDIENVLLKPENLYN
Chain of CGRP receptor (membranes prepared from SK-N-MC cells) (O60894 27-148 limits assumed, chain 2 of 2, further chain): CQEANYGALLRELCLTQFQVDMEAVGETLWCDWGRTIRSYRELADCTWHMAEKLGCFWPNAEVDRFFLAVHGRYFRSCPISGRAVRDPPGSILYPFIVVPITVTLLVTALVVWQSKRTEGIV

Chain of Amylin RBA (rat) (P32214 other isoform, or with tags, fused parts or gaps, chain 1 of 2): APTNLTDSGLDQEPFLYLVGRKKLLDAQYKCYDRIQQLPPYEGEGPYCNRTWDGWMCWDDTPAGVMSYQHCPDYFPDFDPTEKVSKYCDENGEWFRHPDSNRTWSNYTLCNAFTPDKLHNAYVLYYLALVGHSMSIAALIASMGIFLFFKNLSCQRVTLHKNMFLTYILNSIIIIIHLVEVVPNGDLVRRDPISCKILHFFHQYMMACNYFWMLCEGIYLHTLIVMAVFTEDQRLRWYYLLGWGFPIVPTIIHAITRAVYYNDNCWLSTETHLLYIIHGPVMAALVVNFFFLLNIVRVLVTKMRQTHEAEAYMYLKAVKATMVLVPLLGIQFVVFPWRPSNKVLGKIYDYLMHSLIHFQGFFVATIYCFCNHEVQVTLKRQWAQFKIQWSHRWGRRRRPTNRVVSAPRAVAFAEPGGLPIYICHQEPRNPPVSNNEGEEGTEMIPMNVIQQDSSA
Chain of Amylin RBA (rat) (Q9JJ74 27-148, chain 2 of 2, further chain): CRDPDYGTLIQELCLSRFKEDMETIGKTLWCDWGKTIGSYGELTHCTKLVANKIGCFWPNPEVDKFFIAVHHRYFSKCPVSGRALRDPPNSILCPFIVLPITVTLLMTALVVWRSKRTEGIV
Chain of CGRP RBA (Q16602 23-461, chain 1 of 2): as the sequence (Q16602 23-461 limits assumed, chain 1 of 2) above
Chain of CGRP RBA (O60894 27-148, chain 2 of 2, further chain): as the sequence (O60894 27-148 limits assumed, chain 2 of 2, further chain) above

With r/h Calcitonin (peptide), the 50% inhibitory concentration (IC50) in experiment [1] lay within 1.3 to 3.4 nM.
Substance AFP-6 [1-31] registered a concentration giving a half-maximal response (EC50) in the experiment with CGRP RBA of 277 nM.
Take AFP-6 (1-31): the EC50 with Amylin RBA (rat) is more than 100 nM.
Turning to Human CGRP α (peptide), in experiment [2], the EC50, cAMP (AlphaScreen), CHO cells, Average came to 80.4 nM; the EC50, cAMP (AlphaScreen), CHO cells, Experiment 1 worked out at 70.3 nM; the EC50, cAMP (AlphaScreen), CHO cells, Experiment 2 stood at 81.2 nM; the EC50, cAMP (AlphaScreen), CHO cells, Experiment 3 turned out to be 89.7 nM. Further, in experiment [3], the EC50, cAMP (AlphaScreen), T47D cells, Average was found to be 35.5 nM; the EC50, cAMP (AlphaScreen), T47D cells, Experiment 1 stood at 11.9 nM; the EC50, cAMP (AlphaScreen), T47D cells, Experiment 2 is 66.7 nM; the EC50, cAMP (AlphaScreen), T47D cells, Experiment 3 came to 27.8 nM.
In the case of “r/h Amylin (from UniProt P12969 38-74) (peptide)”, in experiment [4], the IC50 was 12 nM.
